Data published in patent publication US20180155451A1 (published 2018).

T1: FcγRIIb (human, UniProt P31994 43-217)
T1 construct: extracellular domain; also called FcgRIIb; 2b
T1 sequence (looked up): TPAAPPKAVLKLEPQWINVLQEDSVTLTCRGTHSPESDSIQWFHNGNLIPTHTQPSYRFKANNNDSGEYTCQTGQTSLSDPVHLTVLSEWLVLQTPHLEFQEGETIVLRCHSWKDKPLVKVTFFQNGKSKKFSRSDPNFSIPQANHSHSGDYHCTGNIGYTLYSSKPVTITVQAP

T2: FcγRIIa H (FcγRIIa, type H allotype, His at position 131), extracellular domain with C-terminal His tag (human, UniProt P12318 34-217)
T2 construct: extracellular domain; Soluble receptor expressed in FreeStyle293 cells; analyte in Biacore; also called FcgRIIa H; 2aH; not shown: C-terminal His tag
T2 sequence (looked up): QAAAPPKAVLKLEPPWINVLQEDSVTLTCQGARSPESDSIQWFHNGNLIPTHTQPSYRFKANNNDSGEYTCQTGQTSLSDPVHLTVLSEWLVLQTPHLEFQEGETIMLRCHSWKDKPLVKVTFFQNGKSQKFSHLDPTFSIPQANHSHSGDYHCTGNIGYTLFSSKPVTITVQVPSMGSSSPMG

T3: FcγRIIb, extracellular domain with C-terminal His tag (human, UniProt P31994 43-217)
T3 construct: extracellular domain; Soluble receptor expressed in FreeStyle293 cells; analyte in Biacore; also called FcgRIIb; 2b; not shown: C-terminal His tag
T3 sequence (looked up): T1 sequence (looked up)

B1: GpH7-A5/GpH7-B3 variant D265_15Y/GpL16-k0 (antibody, human IgG1, kappa)
heavy 1: not shown
heavy 2: not shown
light: DIVMTQSPLSLPVTPGEPASISCQASESLVHSNRNTYLHWYLQKPGQSPQLLIYKVSNRFSGVPDRFSGSGSGTDFTLKISRVEAEDVGVYYCSQNTHVPPTFGQGTKVEIERTVAAPSVFIFPPSDEQLKSGTASVVCLLNNFYPREAKVQWKVDNALQSGNSQESVTEQDSKDSTYSLSSTLTLSKADYEKHKVYACEVTHQGLSSPVTKSFNRGEC
notes: heterodimerized antibody, mutation in the GpH7-B3 chain only; also called He Ab
B2: GpH7-A5/GpH7-B3 variant V266_12R/GpL16-k0 (antibody, human IgG1, kappa)
heavy 1: not shown
heavy 2: not shown
light: B1 light
notes: as for B1
B3: GpH7-A5/GpH7-B3 variant D265_20W/GpL16-k0 (antibody, human IgG1, kappa)
heavy 1: not shown
heavy 2: not shown
light: B1 light
notes: as for B1
B4: GpH7-A5/GpH7-B3 variant D270_01G/GpL16-k0 (antibody, human IgG1, kappa)
heavy 1: not shown
heavy 2: not shown
light: B1 light
notes: Heterodimerized IgG1; mutation only in the GpH7-B3 chain; also called He Ab
B5: GpH7-A5/GpH7-B3 variant D270_13S/GpL16-k0 (antibody, human IgG1, kappa)
heavy 1: not shown
heavy 2: not shown
light: B1 light
notes: as for B4
B6: GpH7-A5/GpH7-B3 variant D270_04F/GpL16-k0 (antibody, human IgG1, kappa)
heavy 1: not shown
heavy 2: not shown
light: B1 light
notes: as for B4
B7: GpH7-A5/GpH7-B3 variant D270_16H/GpL16-k0 (antibody, human IgG1, kappa)
heavy 1: not shown
heavy 2: not shown
light: B1 light
notes: as for B4
B8: GpH7-A5/GpH7-B3 variant D270_14T/GpL16-k0 (antibody, human IgG1, kappa)
heavy 1: not shown
heavy 2: not shown
light: B1 light
notes: as for B4
B9: GpH7-A5/GpH7-B3 variant D270_08L/GpL16-k0 (antibody, human IgG1, kappa)
heavy 1: not shown
heavy 2: not shown
light: B1 light
notes: as for B4
B10: GpH7-A5/GpH7-B3 variant D270_15Y/GpL16-k0 (antibody, human IgG1, kappa)
heavy 1: not shown
heavy 2: not shown
light: B1 light
notes: as for B4
B11: GpH7-A5/GpH7-B3 variant D270_06M/GpL16-k0 (antibody, human IgG1, kappa)
heavy 1: not shown
heavy 2: not shown
light: B1 light
notes: as for B4
B12: GpH7-A5/GpH7-B3 variant D270_19Q/GpL16-k0 (antibody, human IgG1, kappa)
heavy 1: not shown
heavy 2: not shown
light: B1 light
notes: as for B4
B13: GpH7-A5/GpH7-B3 variant D270_02A/GpL16-k0 (antibody, human IgG1, kappa)
heavy 1: not shown
heavy 2: not shown
light: B1 light
notes: as for B4
B14: GpH7-A5/GpH7-B3 variant D270_03V/GpL16-k0 (antibody, human IgG1, kappa)
heavy 1: not shown
heavy 2: not shown
light: B1 light
notes: as for B4
B15: GpH7-A5/GpH7-B3 variant D270_12R/GpL16-k0 (antibody, human IgG1, kappa)
heavy 1: not shown
heavy 2: not shown
light: B1 light
notes: as for B4
B16: GpH7-A5/GpH7-B3 variant D270_18N/GpL16-k0 (antibody, human IgG1, kappa)
heavy 1: not shown
heavy 2: not shown
light: B1 light
notes: as for B4
B17: GpH7-A5/GpH7-B3 variant D270_11K/GpL16-k0 (antibody, human IgG1, kappa)
heavy 1: not shown
heavy 2: not shown
light: B1 light
notes: as for B4
B18: GpH7-A5/GpH7-B3 variant D270_10E/GpL16-k0 (antibody, human IgG1, kappa)
heavy 1: not shown
heavy 2: not shown
light: B1 light
notes: as for B4

What follows are binders tested against T1, FcγRIIb (assay: SPR (Biacore), antibody captured, FcγR as analyte; relative binding).
Protocol: The heterodimerized antibodies He Abs in which one of the H chains was introduced with an alteration were assayed for their binding activities to each activating FcγR and inhibitory FcγR according to the method described in Example 4. […] The activating FcγRs in FIGS. 26, 27, 28, and 29 are FcγRIa, FcγRIIa (R), FcγRIIa (H), and FcγRIIIa, respectively.
Analysis of interaction between objective antibody and the FcγR was carried out using Biacore T100 (GE Healthcare). HBS-EP+ (GE Healthcare) was used as the running buffer, and the measurement temperature was set to 25° C. Chips produced by immobilizing the antigen peptide by the amine coupling method to a Series S Sencor Chip CM5 (GE Healthcare), or alternatively, chips produced by allowing preliminarily biotinylated antigen peptides to interact with and immobilize onto a Series S Sensor Chip SA (certified) (GE Healthcare) were used. Antibodies of interest were captured onto an antigen peptide-immobilized chip, and allowed to interact to each FcγR diluted with running buffer. To regenerate and repeatedly use the chip, the antibodies captured on the chip were washed off by reacting 10 mM glycine-HCl, pH 1.5.

| He/Con_2b (IIb binding) | Binder |
| --- | --- |
| 0.6 % of GpH7-A5/GpH7-B3/GpL16-k0 (=100) | B1 |
| -1.1 % of GpH7-A5/GpH7-B3/GpL16-k0 (=100) | B2 |
| 1.1 % of GpH7-A5/GpH7-B3/GpL16-k0 (=100) | B3 |

The binders below were run against T2, FcγRIIa H (FcγRIIa, type H allotype, …) (assay: ratio of He/Con_2aH to He/Con_2b (FcγRIIa H over FcγRIIb), SPR).

| He_2aH/2b (IIaH/IIb) | Binder |
| --- | --- |
| 1.72 | B4 |
| 1.61 | B5 |
| 1.42 | B6 |
| 1.51 | B7 |
| 1.3 | B8 |
| 1.41 | B9 |
| 1.6 | B10 |
| 1.54 | B11 |
| 1.77 | B12 |
| 1.58 | B13 |
| 1.56 | B14 |
| 2.16 | B15 |
| 1.55 | B16 |
| 2.17 | B17 |
| 1.34 | B18 |

Each binder was assayed against T2, FcγRIIa H (FcγRIIa, type H allotype, …) (assay: SPR (Biacore), captured antibody, FcγR as analyte).

| He/Con_2aH | Binder |
| --- | --- |
| 52.5 relative, GpH7-A5/GpH7-B3/GpL16-k0 = 100 | B4 |
| 71.2 relative, GpH7-A5/GpH7-B3/GpL16-k0 = 100 | B5 |
| 75.4 relative, GpH7-A5/GpH7-B3/GpL16-k0 = 100 | B6 |
| 71.5 relative, GpH7-A5/GpH7-B3/GpL16-k0 = 100 | B7 |
| 75.3 relative, GpH7-A5/GpH7-B3/GpL16-k0 = 100 | B8 |
| 75.8 relative, GpH7-A5/GpH7-B3/GpL16-k0 = 100 | B9 |
| 71.9 relative, GpH7-A5/GpH7-B3/GpL16-k0 = 100 | B10 |
| 74.4 relative, GpH7-A5/GpH7-B3/GpL16-k0 = 100 | B11 |
| 85 relative, GpH7-A5/GpH7-B3/GpL16-k0 = 100 | B12 |
| 76.4 relative, GpH7-A5/GpH7-B3/GpL16-k0 = 100 | B13 |
| 61.8 relative, GpH7-A5/GpH7-B3/GpL16-k0 = 100 | B14 |
| 39.5 relative, GpH7-A5/GpH7-B3/GpL16-k0 = 100 | B15 |
| 62.5 relative, GpH7-A5/GpH7-B3/GpL16-k0 = 100 | B16 |
| 44 relative, GpH7-A5/GpH7-B3/GpL16-k0 = 100 | B17 |
| 102 relative, GpH7-A5/GpH7-B3/GpL16-k0 = 100 | B18 |

Each binder was assayed against T3, FcγRIIb, extracellular domain with … (assay: SPR (Biacore), captured antibody, FcγR as analyte).

| He/Con_2b | Binder |
| --- | --- |
| 30.5 relative, GpH7-A5/GpH7-B3/GpL16-k0 = 100 | B4 |
| 44.2 relative, GpH7-A5/GpH7-B3/GpL16-k0 = 100 | B5 |
| 53.1 relative, GpH7-A5/GpH7-B3/GpL16-k0 = 100 | B6 |
| 47.2 relative, GpH7-A5/GpH7-B3/GpL16-k0 = 100 | B7 |
| 57.8 relative, GpH7-A5/GpH7-B3/GpL16-k0 = 100 | B8 |
| 53.6 relative, GpH7-A5/GpH7-B3/GpL16-k0 = 100 | B9 |
| 44.9 relative, GpH7-A5/GpH7-B3/GpL16-k0 = 100 | B10 |
| 48.2 relative, GpH7-A5/GpH7-B3/GpL16-k0 = 100 | B11 |
| 48 relative, GpH7-A5/GpH7-B3/GpL16-k0 = 100 | B12 |
| 48.3 relative, GpH7-A5/GpH7-B3/GpL16-k0 = 100 | B13 |
| 39.5 relative, GpH7-A5/GpH7-B3/GpL16-k0 = 100 | B14 |
| 18.3 relative, GpH7-A5/GpH7-B3/GpL16-k0 = 100 | B15 |
| 40.3 relative, GpH7-A5/GpH7-B3/GpL16-k0 = 100 | B16 |
| 20.3 relative, GpH7-A5/GpH7-B3/GpL16-k0 = 100 | B17 |
| 76.5 relative, GpH7-A5/GpH7-B3/GpL16-k0 = 100 | B18 |
